# Values of other authors in US20060105948A1, “GLP-2 derivatives” (Novo Nordisk A/S, priority 2003, published 2006).
# Key:
# [1] = humans
# [2] = in vivo
# [3] = tested on: (DS)-induced colitis in mice; conditions: 350 ng or 750 ng s.c. twice daily for 9-10 days
# [4] = s.c. injection 400 mg = 106.000 pmol
Substance,T½ value of elimination ([1]; GLP-2 infusion 0.8 pmol/kg * min) [min],"plasma level of intact GLP-2(1-33) reached on infusion ([1]; GLP-2 infusion 0.8 pmol/kg * min, increasing from 9 pM) [nM]",injected GLP-2(1-33) still intact ([1]; one hour after the s.c. injection) [%],"maximum plasma concentration [1, 4] [pM]","time of maximum plasma concentration [1, 4] [min]",biological half-life [2],histology of colon ([3]; DS mice),body weight loss ([3]; mice on 5% DS in drinking water)
GLP-2(1-33),7,0.131,69,1500,45,about 7 min,,
"A2G-GLP-2(1-33) (HGDGSFSDEMNTILDNLAARDFINWLIQTKITD; Glucagon-like peptide 2; UniProt P01275 146-178, looked up, variant A2G) [GLP-2 peptide analog with Ala2 replaced by Gly]",,,,,,,"greater proportion of intact mucosal epithelium, increased colon length, crypt depth and mucosal area",lost significantly less body weight
